In patent US20240294650A1:

Tests used:
[1] = molecular target: endogenous murine MerTK on bone marrow-derived macrophages (mouse) (UniProt Q60805); experiment: FACS, mouse BMDM, WT minus MerTK KO
[2] = molecular target: mouse MerTK overexpressed on CHO cells (mouse) (UniProt Q60805); experiment: FACS, CHO-muMerTK OE cells, PE-conjugated control
mouse MerTK overexpressed on CHO cells (mouse), sequence (Q60805 19-994): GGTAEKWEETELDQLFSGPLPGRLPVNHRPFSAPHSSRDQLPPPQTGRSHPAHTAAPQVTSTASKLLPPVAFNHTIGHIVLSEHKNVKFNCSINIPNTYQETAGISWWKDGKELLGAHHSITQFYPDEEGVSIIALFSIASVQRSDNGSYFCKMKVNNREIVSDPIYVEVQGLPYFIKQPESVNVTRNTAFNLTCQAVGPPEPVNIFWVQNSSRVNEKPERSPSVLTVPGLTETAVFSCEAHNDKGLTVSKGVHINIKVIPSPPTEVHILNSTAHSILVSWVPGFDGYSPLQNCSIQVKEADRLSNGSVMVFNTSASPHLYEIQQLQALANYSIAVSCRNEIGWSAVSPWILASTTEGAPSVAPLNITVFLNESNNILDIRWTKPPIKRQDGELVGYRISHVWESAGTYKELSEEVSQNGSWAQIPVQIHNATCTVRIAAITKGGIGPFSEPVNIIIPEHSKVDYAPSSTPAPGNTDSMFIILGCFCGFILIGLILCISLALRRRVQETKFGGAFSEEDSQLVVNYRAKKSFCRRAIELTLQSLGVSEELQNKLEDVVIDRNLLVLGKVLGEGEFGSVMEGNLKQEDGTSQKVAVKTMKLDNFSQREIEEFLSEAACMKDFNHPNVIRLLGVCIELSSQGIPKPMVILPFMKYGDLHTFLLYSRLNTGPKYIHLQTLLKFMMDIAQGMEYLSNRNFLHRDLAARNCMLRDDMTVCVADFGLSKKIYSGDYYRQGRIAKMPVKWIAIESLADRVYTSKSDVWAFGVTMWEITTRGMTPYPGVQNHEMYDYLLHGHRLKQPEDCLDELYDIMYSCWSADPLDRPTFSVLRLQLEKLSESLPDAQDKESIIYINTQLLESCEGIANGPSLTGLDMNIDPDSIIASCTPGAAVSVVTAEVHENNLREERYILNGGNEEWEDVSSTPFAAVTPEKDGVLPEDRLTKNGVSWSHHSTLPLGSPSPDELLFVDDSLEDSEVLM

endogenous murine MerTK on bone marrow-derived macrophages (mouse), sequence (Q60805 19-994): as above

- MFI [1]: 2800 MFI
- MFI [2]: 3500 MFI
Substance: rat anti-mouse MerTK monoclonal antibody DS5MMER
